The results in this text go back to publication PMC5095149, “Molecular cloning, heterologous expression, and enzymatic characterization of lysoplasmalogen‐specific phospholipase D from Thermocrispum sp” (FEBS Open Bio, 2016).

Positions count from the first letter of the chain named. Names and notes keep the numbering of the source.

The target in one data set is T1, LyPls-PLD (rLyPls-PLD) (Thermocrispum sp. RD004668, UniProt A0A0U4VTN7).
T1 construct: gene lyspls; pET24a(+), E. coli SHuffle T7, HisTrap purified; kinetics calculated as monomer
The experiment in a line: inhibition of LyPlsCho hydrolysis, choline oxidase/peroxidase colorimetric assay. The data set is classed as biochemical. Particulars: read-out: Relative activity (%) ^a. The source says:
inhibition of LyPlsCho hydrolysis, choline oxidase/peroxidase colorimetric assay on LyPls-PLD (rLyPls-PLD)

Substrate in data set [1]: CCCCCCCCCCCCCCCC/C=C\OC[C@@H](O)COP(=O)([O-])OCC[N+](C)(C)C
The experiment in a line: choline release, choline oxidase/peroxidase colorimetric assay; nonlinear Michaelis-Menten fit. The data set is classed as biochemical, Thermocrispum sp. RD004668. Particulars: 80 mM Tris/HCl pH 8.0, 50 °C, 2 mM CaCl2, 30 s. The source says:
choline release, choline oxidase/peroxidase colorimetric assay; nonlinear Michaelis-Menten fit on LyPls-PLD (rLyPls-PLD)

Substrate in the data set “purified protein”: CCCCCCCCCCCCCCCC/C=C\OC[C@@H](O)COP(=O)(O)OCCN
In words: purified protein. Conditions: 80 mM Tris/HCl pH 8.0, 50 °C.

Substrate in data set [2]: CCCCCCCCCCCCCCCC/C=C\OC[C@@H](O)COP(=O)([O-])OCC[N+](C)(C)C
In words: choline release, choline oxidase/peroxidase colorimetric assay; Hanes-Woolf plot. The data set is classed as biochemical, Thermocrispum sp. RD004668. Conditions: 80 mM Tris/HCl pH 8.0, 50 °C, 2 mM CaCl2. The source says: choline release, choline oxidase/peroxidase colorimetric assay; Hanes-Woolf plot on LyPls-PLD (rLyPls-PLD)

Take `CCCCCCCCCCCCCCCCCC(=O)OC[C@@H](O)COP(=O)(O)O` [LPA, 1‐stearoyl‐2‐hydroxy‐sn‐glycero‐3‐phosphate]: the activity at 4000 µM on LyPls-PLD (rLyPls-PLD) worked out at 89.8 ± 0.3%.
As for `CCCCCCCCCCCCCCCC(=O)OC[C@@H](O)COP(=O)([O-])OCC[N+](C)(C)C` [LPC, 1‐palmitoyl‐2‐hydroxy‐sn‐glycero‐3‐phosphocholine], the activity at 4000 µM on LyPls-PLD (rLyPls-PLD) turned out to be 60.7 ± 0.5%.

B1: LyPls-PLD (rLyPls-PLD) (Thermocrispum sp. RD004668) (protein)
chain: TTRTTDNPWLDARVLNMAHAGGENEAPANTLYAFKRAVKLGANMLELDVQSTKDDQLVVIHNATVDQTTDGTGKVRDLTFEQVHELDAAYNFIPGRHAVPGEPPESYPLRGVRTGEKKPPPGYQPSDFAIPKLADVLEAFPRTPINIEIKGTSDADIPSFLHNAKLLARLLKKTGRTDFIVTSFNDLAVAKFHLLAPDIPIAPGMAGLAAYFLLGVKPMHGTVALQIPVRYQGLEIATPEFIRRAHADGYAVHVWFSGTAPDDEATYNRIIDSCADGLMPAYPALLERILDERGIERPGRPGVDPCG
notes: pET24a(+), E. coli SHuffle T7, HisTrap purified; kinetics calculated as monomer
As to B1, in data set [1], the Km (as a rule, the concentration of substrate that gives half-maximal velocity) stood at 13.2 µM; the kcat (in general, the maximal rate divided by the concentration of active sites) amounted to 70.6 s⁻¹; the kcat/Km (as a rule, the turnover number divided by the Michaelis constant) was determined as 5.34e+06 M⁻¹ s⁻¹. Also, in “purified protein” (2 mM CaCl2, 3 min), the Km was found to be 456 µM, the turnover number (kcat) amounted to 4.51 s⁻¹ and the kcat/Km is 9900 M⁻¹ s⁻¹.

B2: LyPls-PLD (rLyPls-PLD) (Thermocrispum sp. RD004668; F211A) (protein)
chain: B1 chain with F184A
notes: as for B1
Take B2: in data set [2], the Km turned out to be 112 µM, the kcat is 24.8 s⁻¹ and the kcat/Km was found to be 221000 M⁻¹ s⁻¹. Also, in the data set “purified protein” (2 mM CaCl2), the Km amounted to 281 µM, the catalytic constant (kcat) turned out to be 2.88 s⁻¹ and the kcat/Km was determined as 10300 M⁻¹ s⁻¹.
